For one molecule, EC50 results are on record in patent US20230083670A1 (published 2023).

The target in the assay is PD-L1 on CHO cells expressing human PD-L1 (CHO-PDL1) (human, UniProt Q9NZQ7 19-290). As to the kind of experiment: flow cytometry cell binding; CHO-PD-L1 cells. In general terms: In flow cytometry, cells or beads pass a laser one at a time.
PD-L1 on CHO cells expressing human PD-L1 (CHO-PDL1), sequence (Q9NZQ7 19-290): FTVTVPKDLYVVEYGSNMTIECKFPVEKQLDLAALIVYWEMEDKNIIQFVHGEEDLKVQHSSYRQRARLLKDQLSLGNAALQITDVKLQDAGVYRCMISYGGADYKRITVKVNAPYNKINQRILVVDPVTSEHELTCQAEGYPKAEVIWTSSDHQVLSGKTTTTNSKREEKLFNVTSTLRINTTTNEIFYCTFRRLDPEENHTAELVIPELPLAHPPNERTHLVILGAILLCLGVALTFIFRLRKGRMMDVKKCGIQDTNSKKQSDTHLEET

B1: IMM2515 (antibody, V domains shown)
VH: QVQLVQSGAEVKKPGASVKVSCKASGYTFTSNWMHWVRQAPGQGLEWMGMIHPNSGSSNYNEKFKSRVTMTRDTSTSTVYMELSSLRSEDTAVYYCARSYYGSSPYYFDYWGQGTLVTVSS
VL: DIQMTQSPSSLSASVGDRVTITCRASQDIINYLNWYQQKPGKAPKLLIYYTSRLHSGVPSRFSGSGSGTDFTFTISSLQPEDIATYYCQQGDTLPWTFGQGTKVEIKR
The molecule B1 came in with an EC50 of 0.0511 nM. This lies in the picomolar range.

For orientation: EC50 means the concentration at which the effect is half-maximal. Low readings indicate greater potency, high ones weaker potency.
